Bridges are numbered along the chain shown (N, C = ends). Where no end group is shown, it is not given here.
T1: recombinant human osteogenic protein-1 (rhOP-1, rhBMP-7) (human, UniProt P18075 293-431)
T1 construct: Amine-coupled to a CM-5 sensor chip
T1 sequence (looked up): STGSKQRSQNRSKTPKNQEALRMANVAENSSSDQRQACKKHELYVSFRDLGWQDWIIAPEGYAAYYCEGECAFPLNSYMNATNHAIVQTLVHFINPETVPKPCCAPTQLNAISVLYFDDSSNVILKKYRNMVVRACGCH

T2: spp24 (secreted phosphoprotein, 24 kD), the parental protein of BBP (Bos taurus (Bovine), UniProt Q27967 24-203)
T2 construct: also called the related protein
T2 sequence: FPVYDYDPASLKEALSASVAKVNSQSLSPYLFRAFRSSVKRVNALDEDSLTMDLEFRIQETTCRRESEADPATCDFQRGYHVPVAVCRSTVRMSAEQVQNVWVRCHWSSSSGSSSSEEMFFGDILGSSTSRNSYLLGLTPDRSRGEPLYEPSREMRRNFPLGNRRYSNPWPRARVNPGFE

B1: BMP Binding Peptide (BBP), cyclized synthetic 19 amino acid peptide (peptide)
peptide: CRSTVRMSAEQVQNVWVRC
modifications: disulfide 1-19 (inferred)
notes: it is treated here as the same bovine cyclic peptide; also called cyclized BBP
B2: recombinant human bone morphogenetic protein-2 (rhBMP-2) (ligand, UniProt P12643 283-396, looked up)
chain: QAKHKQRKRLKSSCKRHPLYVDFSDVGWNDWIVAPPGYHAFYCHGECPFPLADHLNSTNHAIVQTLVNSVNSKIPKACCVPTELSAISMLYLDENEKVVLKNYQDMVVEGCGCR
notes: Amine-coupled to a CM-5 sensor chip

Key:
[1] = molecular target: B2; assay: SPR (Biacore X), rhBMP-2 on CM-5 chip, peptide as analyte; rhBMP-2 affixed to the chip; cyclized BBP, not reduced
[2] = molecular target: B2; assay: SPR (Biacore X), ligand amine-coupled to CM-5 chip, Langmuir analysis
Method: (§1) The supernatant was decanted and used for analyses. Protein concentrations were determined using UV spectroscopy at an absorbance of 280 nm. Extinction coefficients were calculated using ProtParam tool (www.expasy.ch/tools/protparam.html). Flow rates ranged from 5 to 50 μl/min, and injection volumes were 20 to 100 μl. To ensure uniformity, an effort was made to react sufficient ligand to the chip to give a baseline value of about 2500 RU (response units). The kinetic constants kₐ (on rate, association constant, “recognition”) and kd (off rate, dissociation constant, “stability”) as well as the equilibrium constant KD (equilibrium constant, “affinity”) were determined by a Langmuir analysis using BIAevaluation software (version 3.2) installed on the instrument by the manufacturer.

[3] = molecular target: T1, recombinant human osteogenic protein-1 …; assay: as above
Method: as §1

[4] = molecular target: recombinant human transforming growth factor-beta (rhTGF-β) (human); assay: as above
Method: as §1

[5] = molecular target: B2; assay: cell-based or functional assay
[6] = molecular target: T2, spp24 (secreted phosphoprotein, 24 kD), …; assay: SPR (Biacore X), ligand amine-coupled to CM-5 chip, Langmuir analysis
Method: as §1

Chain of recombinant human transforming growth factor-beta (rhTGF-β) (human) (P01137 279-390): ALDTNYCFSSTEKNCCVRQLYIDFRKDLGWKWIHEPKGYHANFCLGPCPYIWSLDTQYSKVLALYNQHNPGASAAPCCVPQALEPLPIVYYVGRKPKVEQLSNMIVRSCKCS

| Binder | Kd [1] [nM] | Kd [2] [nM] | Kd [3] [nM] | Kd [4] [nM] | retention of labeled rhBMP-2 in collagen sponge implants in rodent muscle pouches [5] [fold] | Kd [6] [nM] | koff [6] [s⁻¹] | kon [6] [M⁻¹ s⁻¹] |
| --- | --- | --- | --- | --- | --- | --- | --- | --- |
| B1 | ~30000 | 53.3 | 1160 | 68 | ~2 |  |  |  |
| B2 |  |  |  |  |  | 17.7 | 0.0055 | 311000 |

— patent US20160000860A1 (University of California, published 2016)
